Test results taken from patent US20240409645A1 (DUALYX, published 2024).
Numbering of substitutions follows the chain as printed. Blank lines part the entries; values can stand above or below the binder they belong to.

How the values were obtained:
[1] = molecular target: T1, mouse IL-2Rγ (mouse, UniProt P34902 23-263); test: PE binding ELISA, periplasmic extract on coated protein
T1 construct: also called mo IL-2R
T1 sequence (looked up): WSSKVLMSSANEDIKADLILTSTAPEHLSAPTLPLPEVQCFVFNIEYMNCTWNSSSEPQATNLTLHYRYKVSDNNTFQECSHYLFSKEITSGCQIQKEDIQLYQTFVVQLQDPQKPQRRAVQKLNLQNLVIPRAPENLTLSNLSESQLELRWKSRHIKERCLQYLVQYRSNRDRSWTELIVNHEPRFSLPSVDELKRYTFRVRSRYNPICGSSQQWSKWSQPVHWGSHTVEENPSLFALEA
Summary of the method: (§1)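 Plates were coated overnight at 4° C with human or mouse IL-2R chain protein, and free sites blocked for 1 hour in 4% Marvel in PBS. Periplasmic extracts diluted 1:5 in 1% Marvel/PBS then bound for 1 hour, with specificity assessed from 450 nm absorbance relative to negative controls.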

[2] = molecular target: T2, human IL-2Rγ (common cytokine receptor γ-chain) (human, UniProt P31785 23-262, limits assumed); test: as above
T2 construct: Recombinant protein coated on the plate or immobilised on a CM5 chip; also called hu IL-2R; CD132
T2 sequence: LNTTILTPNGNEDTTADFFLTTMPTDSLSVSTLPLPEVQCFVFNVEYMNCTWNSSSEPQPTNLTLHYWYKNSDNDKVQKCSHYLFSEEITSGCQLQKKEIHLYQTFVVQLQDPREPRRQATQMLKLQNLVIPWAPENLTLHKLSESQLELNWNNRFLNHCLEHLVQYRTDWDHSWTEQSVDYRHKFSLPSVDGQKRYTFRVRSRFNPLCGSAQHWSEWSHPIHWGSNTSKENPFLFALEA
Summary of the method: as §1

[3] = molecular target: T1, mouse IL-2Rγ; test: SPR off-rate ranking, periplasmic extract on immobilised protein
Summary of the method: (§2)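 First, the IL-2R protein is immobilised via amine coupling in acetate buffer to roughly 2500 RU on a CM5 sensor chip. Next, the VHH extract is loaded at 30 uL/min. Finally, dissociation is recorded for 120s.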

[4] = molecular target: T2, human IL-2Rγ (common cytokine receptor …); test: as above
Summary of the method: as §2

[5] = molecular target: T3, mouse IL-2Rα (mouse, UniProt P01590 22-236, limits assumed); test: ELISA, P.E. on coated antigen
T3 construct: recombinant protein; also called mo IL-2R; mouse IL-2Ra
T3 sequence (looked up): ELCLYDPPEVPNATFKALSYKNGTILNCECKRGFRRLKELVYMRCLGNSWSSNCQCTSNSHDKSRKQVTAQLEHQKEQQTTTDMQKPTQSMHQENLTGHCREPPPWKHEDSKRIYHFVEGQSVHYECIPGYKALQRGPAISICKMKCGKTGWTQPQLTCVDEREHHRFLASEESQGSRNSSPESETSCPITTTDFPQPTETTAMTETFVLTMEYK
Summary of the method: as §1

[6] = molecular target: T4, human IL-2Rα (human, UniProt P01589 22-240, limits assumed); test: ELISA, P.E. on coated antigen
T4 construct: recombinant protein; also called hu IL-2R; human IL-2Ra
T4 sequence: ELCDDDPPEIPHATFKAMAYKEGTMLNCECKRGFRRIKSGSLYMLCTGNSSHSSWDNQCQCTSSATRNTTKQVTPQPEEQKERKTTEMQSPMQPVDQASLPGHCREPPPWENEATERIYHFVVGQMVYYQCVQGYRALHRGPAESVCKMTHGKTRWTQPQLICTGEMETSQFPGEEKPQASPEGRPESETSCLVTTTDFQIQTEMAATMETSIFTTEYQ
Summary of the method: as §1

[7] = molecular target: T3, mouse IL-2Rα; test: SPR, P.E. on immobilised antigen
Summary of the method: as §2

[8] = molecular target: T4, human IL-2Rα; test: SPR, P.E. on immobilised antigen
Summary of the method: as §2

OD (PE binding ELISA) [1]: 0.442 OD450 nm
OD (PE binding ELISA) [2]: 1.25 OD450 nm
koff [3]: 0.0297 s⁻¹
koff [4]: 0.001 s⁻¹
B3: FJ1427_P035MP04H03 (VHH)
VHH: QLQLVESGGGLVQAGGSLRLSCAASGRTLSRYAMGWFRQAPGKEREFVAADSWGGDTFYADSVEGRFTFSRDNAKNAAYLQMNSLQPEDTATYYCAGAPTSFATTAYSSSNSYRYWGQGTQVTVSS
notes: VHH in periplasmic extract; also called clone nr

OD (PE binding ELISA) [1]: 0.109 OD450 nm
OD (PE binding ELISA) [2]: 1.67 OD450 nm
koff [3]: 0.104 s⁻¹
koff [4]: 0.00206 s⁻¹
B5: FJ1427_P035MP04H01 (VHH)
VHH: B3 VHH with L2V, A49T, D51N, F58Y, E64Q, A77T, A78V, T92V, G97A, R114A
notes: as for B3

OD (PE binding ELISA) [1]: 0.066 OD450 nm
OD (PE binding ELISA) [2]: 0.98 OD450 nm
koff [3]: 0.114 s⁻¹
koff [4]: 0.00148 s⁻¹
B8: FJ1427_P035MP04G02 (VHH)
VHH: B3 VHH with L2V, A49T, D51N, F58Y, E64Q, A77T, A78V, T92V, G97A, R114A
notes: as for B3

OD (PE binding ELISA) [1]: 0.077 OD450 nm
OD (PE binding ELISA) [2]: 1.41 OD450 nm
koff [3]: 0.116 s⁻¹
koff [4]: 0.00298 s⁻¹
B9: FJ1427_P035MP04F06 (VHH)
VHH: B3 VHH with L2V, A49T, D51N, F58Y, E64Q, A77T, A78V, T92V, G97A, R114A
notes: as for B3

OD (PE binding ELISA) [1]: 0.065 OD450 nm
OD (PE binding ELISA) [2]: 0.94 OD450 nm
koff [3]: 0.117 s⁻¹
koff [4]: 0.00149 s⁻¹
B10: FJ1427_P035MP04E11 (VHH)
VHH: B3 VHH with L2V, A49T, D51N, F58Y, E64Q, A77T, A78V, T92V, G97A, R114A
notes: as for B3

OD (PE binding ELISA) [1]: 0.085 OD450 nm
OD (PE binding ELISA) [2]: 1.66 OD450 nm
koff [3]: 0.11 s⁻¹
koff [4]: 0.00268 s⁻¹
B11: FJ1427_P035MP04F01 (VHH)
VHH: B3 VHH with L2V, A49T, D51N, F58Y, E64Q, A77T, A78V, T92V, G97A, R114A
notes: as for B3

OD (PE binding ELISA) [1]: 0.067 OD450 nm
OD (PE binding ELISA) [2]: 1.08 OD450 nm
koff [3]: 0.109 s⁻¹
koff [4]: 0.00266 s⁻¹
B13: FJ1427_P035MP04E01 (VHH)
VHH: B3 VHH with L2V, A49T, D51N, F58Y, E64Q, A77T, A78V, T92V, G97A, R114A
notes: as for B3

The remaining lines, values behind:

B1: 38-MP07A11 (VHH)
VHH: QVQLVESGGGLVQAGGSLRLSCAASGRSLSRDAMGWFRQAPGKEREFVAVMSWGGDTFYTDSVEGRFTFSRDNAKNAVYLEMNDLQPEDTAVYYCAAAPTSFATTAYSSSNSYSYWGRGTQVTVSS
notes: VHH in periplasmic extract; also called FJ1427_P035MP07A11; clone nr
OD (PE binding ELISA) [1]: 0.173 OD450 nm
OD (PE binding ELISA) [2]: 1.31 OD450 nm
koff [3]: 0.0149 s⁻¹
koff [4]: 0.00235 s⁻¹

B2: 9-MP05G01 (VHH)
VHH: EVQLVESGGGLVQAGGSLRLSCAASGGSIYTYNMGWFRQAPGKEREFVAGTLWSGGDSVYADFAKGRFTLSRENAKNTLYLQMNSLKPEDTATYYCAIDPLSLTSDWRVDELSSWGKGTLVTVSS
notes: periplasmic extract; also called FJ1427_P035MP05G01
OD (PE binding ELISA) [5]: 0.047 OD450 nm
OD (PE binding ELISA) [6]: 2.35 OD450 nm
koff [7]: 0.0442 s⁻¹
koff [8]: 0.000169 s⁻¹

B4: FJ1427_P035MP04B09 (VHH)
VHH: B3 VHH with L2V, A49T, D51N, F58Y, E64Q, A77T, A78V, T92V, G97A, R114A
notes: as for B3
OD (PE binding ELISA) [1]: 0.083 OD450 nm
OD (PE binding ELISA) [2]: 1.54 OD450 nm
koff [3]: 0.122 s⁻¹
koff [4]: 0.00146 s⁻¹

B6: FJ1427_P035MP04B12 (VHH)
VHH: B3 VHH with L2V, A49T, D51N, F58Y, E64Q, A77T, A78V, T92V, G97A, R114A
notes: as for B3
OD (PE binding ELISA) [1]: 0.074 OD450 nm
OD (PE binding ELISA) [2]: 0.936 OD450 nm
koff [3]: 0.116 s⁻¹
koff [4]: 0.00344 s⁻¹

B7: FJ1427_P035MP04A02 (VHH)
VHH: B3 VHH with L2V, A49T, D51N, F58Y, E64Q, A77T, A78V, T92V, G97A, R114A
notes: as for B3
OD (PE binding ELISA) [1]: 0.085 OD450 nm
OD (PE binding ELISA) [2]: 1.45 OD450 nm
koff [3]: 0.126 s⁻¹
koff [4]: 0.00306 s⁻¹

B12: FJ1427_P035MP04C02 (VHH)
VHH: B3 VHH with L2V, A49T, D51N, F58Y, E64Q, A77T, A78V, T92V, G97A, R114A
notes: as for B3
OD (PE binding ELISA) [1]: 0.07 OD450 nm
OD (PE binding ELISA) [2]: 1 OD450 nm
koff [3]: 0.126 s⁻¹
koff [4]: 0.00196 s⁻¹
